In the supplement of paper PMC10065799, “High-throughput profiling of sequence recognition by tyrosine kinases and SH2 domains using bacterial peptide display” (eLife, 2023):

Columns and labels:
Hck = Hck (UniProt P08631); assay: phosphorylation enrichment, bacterial display (enrichment ratio); higher = better substrate or ligand; peptides without Tyr show the background
Fer (mouse) = assay: as above
AncSZ = assay: as above
c-Src = assay: as above
FGFR1 = FGFR1 (UniProt P11362); assay: as above
Sequence of FGFR1 (P11362 whole entry, looked up): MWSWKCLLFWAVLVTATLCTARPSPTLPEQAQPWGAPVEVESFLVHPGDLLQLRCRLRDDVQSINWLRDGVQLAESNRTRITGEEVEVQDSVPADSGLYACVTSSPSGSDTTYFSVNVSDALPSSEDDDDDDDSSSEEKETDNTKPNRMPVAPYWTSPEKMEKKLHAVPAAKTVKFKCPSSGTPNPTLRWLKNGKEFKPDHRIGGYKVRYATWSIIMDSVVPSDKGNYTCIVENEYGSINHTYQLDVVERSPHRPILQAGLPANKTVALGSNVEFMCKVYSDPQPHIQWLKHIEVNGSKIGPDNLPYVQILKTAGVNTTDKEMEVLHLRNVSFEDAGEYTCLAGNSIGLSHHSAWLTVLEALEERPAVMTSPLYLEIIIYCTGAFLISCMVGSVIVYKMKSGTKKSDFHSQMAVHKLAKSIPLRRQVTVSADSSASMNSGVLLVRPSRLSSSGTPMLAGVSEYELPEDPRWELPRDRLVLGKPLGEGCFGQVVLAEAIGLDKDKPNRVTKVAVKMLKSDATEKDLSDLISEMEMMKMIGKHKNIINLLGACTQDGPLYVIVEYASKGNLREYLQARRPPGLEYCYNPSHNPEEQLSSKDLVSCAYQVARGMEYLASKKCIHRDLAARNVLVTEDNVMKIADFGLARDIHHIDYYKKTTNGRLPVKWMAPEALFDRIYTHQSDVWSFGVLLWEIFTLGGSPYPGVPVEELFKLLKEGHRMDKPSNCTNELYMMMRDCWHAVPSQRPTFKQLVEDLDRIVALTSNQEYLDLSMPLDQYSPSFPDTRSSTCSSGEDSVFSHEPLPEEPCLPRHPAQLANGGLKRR

Fyn = Fyn (UniProt P06241); assay: as above
Sequence of Fyn (P06241 whole entry, looked up): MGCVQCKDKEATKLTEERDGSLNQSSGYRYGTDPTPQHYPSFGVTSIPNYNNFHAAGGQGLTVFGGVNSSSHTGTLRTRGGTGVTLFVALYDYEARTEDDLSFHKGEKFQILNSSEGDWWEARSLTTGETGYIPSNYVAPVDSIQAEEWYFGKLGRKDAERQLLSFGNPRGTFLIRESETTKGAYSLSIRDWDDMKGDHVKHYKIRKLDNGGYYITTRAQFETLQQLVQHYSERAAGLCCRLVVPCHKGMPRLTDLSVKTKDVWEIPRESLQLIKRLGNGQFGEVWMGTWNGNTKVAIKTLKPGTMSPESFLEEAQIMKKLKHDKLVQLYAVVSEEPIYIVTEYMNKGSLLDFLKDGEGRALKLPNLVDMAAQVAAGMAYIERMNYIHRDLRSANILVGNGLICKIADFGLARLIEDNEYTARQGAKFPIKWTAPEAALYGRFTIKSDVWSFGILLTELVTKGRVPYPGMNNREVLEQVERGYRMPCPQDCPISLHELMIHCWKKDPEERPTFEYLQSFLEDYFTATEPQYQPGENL

c-Abl (mouse) = assay: as above
EPHB1 = EPHB1 (UniProt P54762); assay: as above
FGFR3 = FGFR3 (UniProt P22607); assay: as above
Sequence of FGFR3 (P22607 whole entry, looked up): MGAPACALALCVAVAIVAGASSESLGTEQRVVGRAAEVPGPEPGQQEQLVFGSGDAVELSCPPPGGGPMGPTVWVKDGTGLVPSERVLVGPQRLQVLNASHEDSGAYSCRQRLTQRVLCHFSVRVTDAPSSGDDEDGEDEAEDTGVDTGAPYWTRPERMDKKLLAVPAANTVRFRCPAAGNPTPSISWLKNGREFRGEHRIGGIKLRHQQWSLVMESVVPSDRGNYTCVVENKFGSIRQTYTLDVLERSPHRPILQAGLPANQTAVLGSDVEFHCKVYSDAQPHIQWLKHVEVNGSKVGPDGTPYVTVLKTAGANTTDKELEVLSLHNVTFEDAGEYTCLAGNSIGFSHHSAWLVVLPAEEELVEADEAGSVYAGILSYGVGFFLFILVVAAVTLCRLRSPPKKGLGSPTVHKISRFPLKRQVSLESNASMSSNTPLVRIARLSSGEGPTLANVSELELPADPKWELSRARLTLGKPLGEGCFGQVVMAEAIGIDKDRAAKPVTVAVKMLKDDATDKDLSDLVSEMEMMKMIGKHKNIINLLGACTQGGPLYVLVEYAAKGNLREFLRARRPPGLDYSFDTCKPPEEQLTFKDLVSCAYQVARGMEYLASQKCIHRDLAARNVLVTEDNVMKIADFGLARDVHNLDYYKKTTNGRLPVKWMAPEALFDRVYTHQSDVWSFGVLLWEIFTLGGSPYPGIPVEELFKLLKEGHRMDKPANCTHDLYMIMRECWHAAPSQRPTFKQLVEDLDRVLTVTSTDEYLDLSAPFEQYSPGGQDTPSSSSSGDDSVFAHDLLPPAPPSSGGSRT

MERTK = MERTK (UniProt Q12866); assay: as above
Fes = Fes (UniProt P07332); assay: as above
Jak2 = Jak2 (UniProt O60674); assay: as above
Sequence of Jak2 (O60674 whole entry, looked up): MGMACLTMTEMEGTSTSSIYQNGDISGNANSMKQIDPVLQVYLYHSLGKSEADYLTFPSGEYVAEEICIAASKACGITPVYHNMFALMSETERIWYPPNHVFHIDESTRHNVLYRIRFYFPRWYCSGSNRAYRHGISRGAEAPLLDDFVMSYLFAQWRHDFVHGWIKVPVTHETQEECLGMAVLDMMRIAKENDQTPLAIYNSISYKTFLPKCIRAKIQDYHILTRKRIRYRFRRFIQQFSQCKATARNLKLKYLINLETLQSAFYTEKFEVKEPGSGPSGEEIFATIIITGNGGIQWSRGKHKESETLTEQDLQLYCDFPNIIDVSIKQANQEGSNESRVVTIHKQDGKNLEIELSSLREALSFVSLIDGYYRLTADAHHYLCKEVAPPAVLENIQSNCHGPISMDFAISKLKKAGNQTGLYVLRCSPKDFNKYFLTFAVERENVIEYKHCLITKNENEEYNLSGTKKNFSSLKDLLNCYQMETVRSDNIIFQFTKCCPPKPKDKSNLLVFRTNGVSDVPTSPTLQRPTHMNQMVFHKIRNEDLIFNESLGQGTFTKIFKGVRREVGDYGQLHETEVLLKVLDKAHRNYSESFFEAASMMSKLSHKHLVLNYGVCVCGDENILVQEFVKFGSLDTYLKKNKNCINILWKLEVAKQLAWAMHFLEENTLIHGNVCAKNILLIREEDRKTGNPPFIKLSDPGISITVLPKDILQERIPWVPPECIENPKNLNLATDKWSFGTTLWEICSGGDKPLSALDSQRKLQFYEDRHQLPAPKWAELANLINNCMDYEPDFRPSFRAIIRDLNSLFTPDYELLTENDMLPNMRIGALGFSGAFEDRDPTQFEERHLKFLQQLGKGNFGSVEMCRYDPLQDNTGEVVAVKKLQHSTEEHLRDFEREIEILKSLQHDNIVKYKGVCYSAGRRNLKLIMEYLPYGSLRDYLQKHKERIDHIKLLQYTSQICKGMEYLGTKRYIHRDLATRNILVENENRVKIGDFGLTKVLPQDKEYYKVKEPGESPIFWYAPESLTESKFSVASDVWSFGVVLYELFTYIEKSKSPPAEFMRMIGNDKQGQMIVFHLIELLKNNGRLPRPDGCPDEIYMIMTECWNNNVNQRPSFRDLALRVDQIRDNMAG

EPHB2 = EPHB2 (UniProt P29323); assay: as above
Sequence of EPHB2 (P29323 whole entry, looked up): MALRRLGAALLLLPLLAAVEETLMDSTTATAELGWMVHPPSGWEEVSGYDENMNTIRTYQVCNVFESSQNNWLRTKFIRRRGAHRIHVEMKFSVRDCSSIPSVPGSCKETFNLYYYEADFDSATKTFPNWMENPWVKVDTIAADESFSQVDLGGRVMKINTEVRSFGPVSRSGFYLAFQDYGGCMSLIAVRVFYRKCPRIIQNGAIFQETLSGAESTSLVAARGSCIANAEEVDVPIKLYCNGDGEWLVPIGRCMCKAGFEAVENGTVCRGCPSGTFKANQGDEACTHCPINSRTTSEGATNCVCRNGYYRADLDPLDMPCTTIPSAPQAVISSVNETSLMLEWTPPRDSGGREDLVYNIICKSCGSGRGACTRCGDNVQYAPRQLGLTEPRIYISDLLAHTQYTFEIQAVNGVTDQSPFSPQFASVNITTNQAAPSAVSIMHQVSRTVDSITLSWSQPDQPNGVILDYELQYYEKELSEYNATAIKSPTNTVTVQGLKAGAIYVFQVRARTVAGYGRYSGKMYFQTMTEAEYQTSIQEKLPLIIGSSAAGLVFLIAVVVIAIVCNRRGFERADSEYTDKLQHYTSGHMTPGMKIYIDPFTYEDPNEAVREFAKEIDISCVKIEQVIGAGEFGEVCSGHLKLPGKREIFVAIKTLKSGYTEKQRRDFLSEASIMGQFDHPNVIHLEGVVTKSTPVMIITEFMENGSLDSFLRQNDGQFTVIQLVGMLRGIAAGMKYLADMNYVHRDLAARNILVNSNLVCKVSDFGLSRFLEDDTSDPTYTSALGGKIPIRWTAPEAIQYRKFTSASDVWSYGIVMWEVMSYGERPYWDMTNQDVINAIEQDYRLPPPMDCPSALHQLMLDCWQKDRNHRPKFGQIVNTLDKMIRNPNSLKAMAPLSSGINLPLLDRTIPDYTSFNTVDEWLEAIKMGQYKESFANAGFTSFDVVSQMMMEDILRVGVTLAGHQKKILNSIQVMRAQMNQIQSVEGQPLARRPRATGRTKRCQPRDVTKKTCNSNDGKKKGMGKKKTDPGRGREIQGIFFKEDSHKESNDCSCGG

c-Src SH2 = assay: SH2 binding enrichment of the phosphorylated peptide, bacterial display (enrichment ratio); higher = better substrate or ligand; peptides without Tyr show the background
SHP2-C SH2 = assay: as above
Grb2 SH2 = Grb2 SH2 (UniProt P62993); assay: as above
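Throughout, for SH2 binding enrichment of the phosphorylated peptide, bacterial display: peptide library displayed on the E. coli surface as eCPX fusions, selected cells deep-sequenced, score is each peptide's frequency after selection divided by its frequency in the input.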
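Throughout, for phosphorylation enrichment, bacterial display: 11-residue human phosphosite peptides and single-mutation variants displayed on the E. coli surface, counted by deep sequencing, each peptide's frequency after selection divided by its frequency in the unselected input library; frequency after pTyr selection over input frequency; kinase dosed for 20-30% of maximal phosphorylation in three min.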

Sequence of Hck (P08631 whole entry, looked up): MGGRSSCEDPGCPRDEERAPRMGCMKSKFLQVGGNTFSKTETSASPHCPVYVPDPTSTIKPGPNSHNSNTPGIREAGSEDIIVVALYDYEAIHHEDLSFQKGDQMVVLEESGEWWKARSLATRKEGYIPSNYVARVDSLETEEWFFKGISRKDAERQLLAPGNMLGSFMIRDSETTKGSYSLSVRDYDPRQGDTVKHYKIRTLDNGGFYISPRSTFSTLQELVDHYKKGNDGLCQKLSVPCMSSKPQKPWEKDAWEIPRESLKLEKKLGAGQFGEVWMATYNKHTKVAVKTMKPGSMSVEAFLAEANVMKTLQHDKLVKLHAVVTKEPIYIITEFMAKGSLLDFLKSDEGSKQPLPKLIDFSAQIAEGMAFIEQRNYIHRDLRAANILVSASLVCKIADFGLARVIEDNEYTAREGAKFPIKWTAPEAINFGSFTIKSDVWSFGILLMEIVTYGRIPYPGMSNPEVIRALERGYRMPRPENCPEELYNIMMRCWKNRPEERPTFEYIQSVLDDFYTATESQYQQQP

Sequence | SH2 binding enrichment (c-Src SH2) | SH2 binding enrichment (SHP2-C SH2) | SH2 binding enrichment (Grb2 SH2) | phosphorylation enrichment (Hck) | phosphorylation enrichment (Fer (mouse)) | phosphorylation enrichment (AncSZ) | phosphorylation enrichment (c-Src) | phosphorylation enrichment (FGFR1) | phosphorylation enrichment (Fyn) | phosphorylation enrichment (c-Abl (mouse)) | phosphorylation enrichment (EPHB1) | phosphorylation enrichment (FGFR3) | phosphorylation enrichment (MERTK) | phosphorylation enrichment (Fes) | phosphorylation enrichment (Jak2) | phosphorylation enrichment (EPHB2)
ATDLAYYLVCK [ASL_Y375_R379C] | 0.59 | 0.505 | 0.803 | 1.02 | 0.696 | 2.13 | 1.06 | 3.43 | 0.852 | 1.04 | 1.08 | 3.06 | 0.884 | 1.77 | 2.82 | 0.885
ATGLIYIGSHD [AASDH_Y870_T865A] | 0.598 | 0.526 | 0.759 | 0.469 | 0.52 | 0.827 | 0.492 | 0.427 | 0.427 | 0.881 | 0.724 | 0.684 | 0.543 | 1.15 | 0.809 | 0.724
ATHRGYDLDNP [MMUT_Y146_S148L] | 0.384 | 0.654 | 0.721 | 0.411 | 0.413 | 0.64 | 0.377 | 0.409 | 0.392 | 0.614 | 0.459 | 0.727 | 0.343 | 0.79 | 0.698 | 0.434
ATPKGYEPDAS [OTC_Y223] | 0.557 | 1.02 | 0.933 | 0.444 | 0.508 | 0.738 | 0.541 | 0.49 | 0.501 | 0.729 | 0.439 | 0.59 | 0.489 | 0.843 | 0.79 | 0.575
ATRDVYNPFET [SCAMP3_Y41_L38R] | 0.427 | 0.658 | 0.703 | 1.06 | 0.457 | 0.835 | 1.48 | 0.54 | 1.08 | 0.617 | 0.454 | 0.598 | 0.485 | 1.03 | 0.901 | 0.454
AVAFLYFKSIG [ADGRL4_Y301_V300L_YF] | 0.569 | 1.07 | 0.806 | 0.516 | 0.605 | 1.14 | 0.441 | 0.549 | 0.483 | 0.851 | 0.683 | 0.837 | 0.478 | 1.62 | 1.33 | 0.649
AVEDQYFCVDC [FHL1_Y207_YF] | 0.662 | 0.736 | 0.849 | 0.791 | 0.7 | 2.15 | 0.703 | 5.2 | 0.775 | 0.868 | 1.17 | 3.66 | 0.622 | 1.64 | 1.48 | 0.862
AVLSLYASGST [ACTG2_Y144_R148S] | 0.611 | 0.907 | 1.06 | 0.638 | 0.558 | 1.08 | 0.541 | 0.572 | 0.476 | 0.829 | 0.729 | 0.723 | 0.414 | 1.26 | 1.09 | 0.722
AYRRGYFDEEM [PLEC_Y2971] | 0.463 | 0.91 | 0.573 | 0.397 | 0.389 | 1.13 | 0.371 | 0.477 | 0.442 | 0.54 | 0.469 | 0.5 | 0.412 | 0.906 | 0.849 | 0.377
CDKEFYSVHNK [MET_Y1235_Y1230C_YF] | 0.727 | 0.902 | 1 | 0.46 | 0.405 | 0.732 | 0.491 | 0.441 | 0.504 | 0.55 | 0.461 | 0.606 | 0.423 | 0.827 | 0.68 | 0.586
CDSSGYWTPEE [PAPPA2_Y908] | 14.9 | 1.08 | 0.967 | 0.555 | 0.556 | 1.25 | 0.508 | 0.579 | 0.454 | 0.727 | 0.676 | 0.783 | 0.494 | 1.47 | 1.22 | 0.654
CEETFYTMKMN [MASP2_Y401_V405M] | 0.575 | 0.657 | 0.771 | 1.09 | 0.935 | 1.99 | 2.6 | 0.666 | 1.59 | 1.3 | 0.939 | 1.11 | 0.829 | 1.87 | 1.83 | 0.894
CGSLLYGLVHQ [PRKCG_Y122] | 0.519 | 0.908 | 0.987 | 7.19 | 12.9 | 0.889 | 5.57 | 0.545 | 5.73 | 0.664 | 2.22 | 0.663 | 7.41 | 1.2 | 0.673 | 4.64
CLAKMYFSAVE [CP_Y539_D544E_YF] | 0.621 | 0.834 | 1.09 | 0.663 | 0.602 | 1.22 | 0.721 | 0.599 | 0.822 | 0.848 | 0.589 | 0.909 | 0.514 | 1.35 | 1.19 | 0.552
CLAQRYLIWEC [SCN5A_Y694_R689C] | 1.28 | 1.65 | 1.32 | 0.535 | 0.568 | 1.29 | 0.505 | 0.693 | 0.533 | 0.788 | 0.836 | 0.783 | 0.48 | 1.39 | 1.03 | 0.646
CLLHCYFSQIH [MCM3AP_Y873_R878H] | 1.38 | 1.53 | 2.04 | 0.476 | 0.569 | 0.886 | 0.476 | 0.689 | 0.43 | 0.664 | 0.626 | 0.736 | 0.431 | 1.29 | 1.26 | 0.453
CNPLCYPTIMI [OR6K6_Y160_R159C] | 0.42 | 0.617 | 0.622 | 0.442 | 1.37 | 0.867 | 0.416 | 1.71 | 0.408 | 0.596 | 0.518 | 0.828 | 0.917 | 0.821 | 0.721 | 0.524
CQLENYCNGGG [INS_Y108_Y103C] | 1.17 | 0.888 | 1.29 | 0.57 | 0.49 | 0.925 | 0.494 | 0.573 | 0.54 | 0.621 | 0.681 | 0.664 | 0.503 | 0.89 | 0.837 | 0.696
CRAVKYLQMVG [AVPR2_Y117] | 0.521 | 1.24 | 0.964 | 0.504 | 0.443 | 0.711 | 0.401 | 0.499 | 0.405 | 0.522 | 0.608 | 0.574 | 0.379 | 0.739 | 0.619 | 0.44
DAICYYRMENA [NPHS2_Y195] | 0.641 | 0.799 | 0.952 | 1.11 | 0.736 | 2.23 | 3.12 | 7.73 | 1.34 | 1.03 | 0.866 | 6.5 | 1.28 | 1.44 | 6.63 | 0.795
DASAVYLRDFQ [PLCG2_Y242_H244R] | 0.471 | 0.553 | 0.95 | 0.544 | 0.452 | 0.769 | 0.693 | 0.425 | 0.562 | 0.986 | 0.506 | 0.58 | 0.675 | 0.963 | 0.894 | 0.492

The next lines start with results.

SH2 binding enrichment (c-Src SH2) | SH2 binding enrichment (SHP2-C SH2) | SH2 binding enrichment (Grb2 SH2) | Sequence | phosphorylation enrichment (Hck) | phosphorylation enrichment (Fer (mouse)) | phosphorylation enrichment (AncSZ) | phosphorylation enrichment (c-Src) | phosphorylation enrichment (FGFR1) | phosphorylation enrichment (Fyn) | phosphorylation enrichment (c-Abl (mouse)) | phosphorylation enrichment (EPHB1) | phosphorylation enrichment (FGFR3) | phosphorylation enrichment (MERTK) | phosphorylation enrichment (Fes) | phosphorylation enrichment (Jak2) | phosphorylation enrichment (EPHB2)
0.548 | 0.518 | 1 | ATATEYHTTSH [SLC4A1_Y46_D45E] | 0.333 | 0.301 | 0.506 | 0.413 | 0.456 | 0.38 | 0.487 | 0.316 | 0.309 | 0.395 | 0.509 | 0.99 | 0.55
1.31 | 0.648 | 0.786 | AVVEPYNSLLT [TUBA1A_Y185_I188L] | 0.427 | 0.394 | 0.888 | 0.463 | 0.399 | 0.426 | 0.579 | 0.574 | 0.54 | 0.454 | 0.891 | 1.19 | 0.618
0.751 | 0.974 | 0.934 | CEHRGCLFLAI [TEK_Y897_Y897C_YF] | 0.38 | 0.421 | 1.02 | 0.282 | 0.455 | 0.334 | 0.601 | 0.554 | 0.624 | 0.298 | 1.13 | 0.797 | 0.468
0.762 | 1.06 | 1.03 | CGQDPCIRELG [UROS_Y19_Y19C] | 0.423 | 0.458 | 0.991 | 0.421 | 0.581 | 0.468 | 0.644 | 0.44 | 0.569 | 0.449 | 0.946 | 0.821 | 0.508
0.575 | 0.723 | 0.811 | CHSDDYVHISI [TSC1_Y406_L411I] | 0.573 | 0.597 | 1.65 | 0.524 | 1.65 | 0.532 | 0.879 | 0.898 | 1.29 | 0.457 | 1.39 | 1.07 | 0.67
2.71 | 1.97 | 1.41 | CPTIHYNFMCN [TP53_Y234_T230P_YF] | 0.655 | 0.646 | 1.09 | 0.603 | 0.687 | 0.557 | 0.757 | 0.576 | 0.79 | 0.501 | 1.17 | 0.916 | 0.596
1.23 | 1.03 | 1.01 | CTTIHHNYMCN [TP53_Y234_Y234H] | 0.455 | 0.412 | 0.766 | 0.432 | 0.601 | 0.459 | 0.525 | 0.486 | 0.586 | 0.362 | 0.649 | 0.835 | 0.531
0.85 | 0.836 | 1.07 | CTTIHYNFMHN [TP53_Y234_C238H_YF] | 0.517 | 0.463 | 0.829 | 0.432 | 0.457 | 0.566 | 0.765 | 0.583 | 0.676 | 0.454 | 1 | 0.799 | 0.54
1.67 | 1.4 | 1.42 | CTTIHYNYKCN [TP53_Y234_M237K] | 0.484 | 0.408 | 0.754 | 0.454 | 0.526 | 0.454 | 0.493 | 0.433 | 0.566 | 0.562 | 0.878 | 0.62 | 0.539
3.68 | 2.4 | 1.26 | CTTIHYNYMCH [TP53_Y234_N239H] | 0.49 | 0.597 | 0.751 | 0.506 | 0.514 | 0.449 | 0.581 | 0.724 | 0.706 | 0.407 | 0.855 | 0.672 | 0.761
3.29 | 1.86 | 1.47 | CTTIHYNYTCN [TP53_Y234_M237T] | 0.416 | 0.476 | 0.756 | 0.414 | 0.47 | 0.445 | 0.585 | 0.492 | 0.624 | 0.403 | 0.837 | 0.726 | 0.556
5.64 | 1.1 | 0.913 | CTTIPYNYMCN [TP53_Y234_H233P] | 0.433 | 0.424 | 1.18 | 0.55 | 0.543 | 0.47 | 0.615 | 0.528 | 0.605 | 0.418 | 0.863 | 0.791 | 0.509
